# According to PMC8703291, “Non-Cationic RGD-Containing Protein Nanocarrier for Tumor-Targeted siRNA Delivery” (Pharmaceutics, 2021):
# B1: dual-RGD-dsRBD-18his (dual-RGD) recombinant protein (designed binder)
# chain: CDCRGDCFCAGDLSAGFFMEELNTYRQKQGVVLKYQELPNSGPPHDRRFTFQVIIDGREFPEGEGRSKKEAKNAAAKLAVEILNKEKKAVSPLLLTTTNSSEGLSMGNYIGLINRIAQKKRLTVNYEQCASGVHGPEGFHYKCKMGQKEYSIGTGSTKQEAKQLAAKLAYLQILSEETSVGRGDS
# notes: cyclic RGD peptide RGD-4C appended to the N-terminal of dsRBD-18His; linear GRGDS (Gly-Arg-Gly-Asp-Ser) peptide added to the C-terminal of dsRBD-18His; MW ~26 kDa (monomer); also called dual-RGD carrier; source: E. coli BL21 (DE3), purified (nickel resin), dialysed against PBS with 10% glycerol and 0.1% β-ME
# Molecular target: the molecule itself
# Experiment: non-reducing SDS-PAGE; purified dual-RGD under non-reducing conditions, Coomassie blue staining
protein,measurement,value
B1,stoichiometry N,2
